Target: Recombinant Aβ1-42 (rAβ1-42 peptides) in the Thioflavin T fibril formation assay (UniProt P05067)
Test: cell-based or functional assay

Sequence of Recombinant Aβ1-42 (rAβ1-42 peptides) in the Thioflavin T fibril formation assay (P05067 672-713 limits assumed): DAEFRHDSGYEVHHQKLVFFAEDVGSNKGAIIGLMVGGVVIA

- T50 (time in minutes for 50% inhibition of fibril formation): 25.9 min
Substance: control anti-rhodopsin 1D4 antibody (Abcam)

Source: patent US20160251419A1
